{"source": "paper PMC6300008", "proteins": {"B1": {"name": "CD200R1 (CD200 receptor 1): N44Q (protein)", "parent chain": "MFCFWRTSALAVLLIWGVFVAGSSCTDKNQTTQNNSSSPLTQVNTTVSVQIGTKALLCCFSIPLTKAVLITWIIKLRGLPSCTIAYKVDTKTNETSCLGRNITWASTPDHSPELQISAVTLQHEGTYTCETVTPEGNFEKNYDLQVLVPPEVTYFPEKNRSAVCEAMAGKPAAQISWSPDGDCVTTSESHSNGTVTVRSTCHWEQNNVSDVSCIVSHLTGNQSLSIELSRGGNQSLRPYIPYIIPSIIILIIIGCICLLKISGFRKCKLPKLEATSAIEEDEMQPYASYTEKSNPLYDTVTKVEAFPVSQGEVNGTDCLTLSAIGI"}}, "assay": "LDH release into supernatant, 24 h", "details": "glycan lost; control: WT-transfected BV2 cells plus LPS, co-cultured with neurons", "data": [{"protein": "B1", "values": [{"measurement": "other: neuronal death in co-culture", "result": "increases"}]}]}
